Laboratory results as given in publication doi:10.1101/2021.02.26.433144v1 (biorxiv, 2021).

Key:
Assay in all cases: purified protein
purified protein [1] = substrate: COc1ccccc1O; conditions: 0.1 M sodium phosphate pH 7, 40 °C, 0-15 mM substrate
purified protein [2] = substrate: N[C@@H](Cc1ccc(O)c(O)c1)C(=O)O; conditions: 0.1 M sodium phosphate pH 7, 40 °C, 0-7 mM substrate
purified protein [3] = substrate: Oc1cc(O)c2c(c1)O[C@H](c1ccc(O)c(O)c1)[C@@H](O)C2; conditions: 0.1 M sodium phosphate pH 7, 40 °C, 0-10 mM substrate
purified protein [4] = substrate: Oc1ccc(O)cc1; conditions: 0.1 M sodium phosphate pH 7, 40 °C, 0-70 mM substrate
purified protein [5] = substrate: Oc1ccccc1O; conditions: 0.1 M sodium phosphate pH 7, 40 °C, 0-60 mM substrate

Row | Protein | Km (purified protein [3]) | kcat (purified protein [3]) | also measured
1 | TtPPO (Thermothelomyces thermophilus ATCC 42464) (protein) RCSSDAPPPAPVGDDLTEPKELTDLFEKAKKAVIDRLHEDEKALRARGEAPRCTADKLIFRREYGSLSKDERLAYVNAVKCLQSKPPRTPASVAPGARSRFDDFVVVHIQQTLDIHYSGIFQAWHRWFVYQYEKALRDECGYTGYQPYWDWPKYASAPQDSPLFNGDPYSLGGNGEYVPHDGPVIVPPEGVSGGNISLPAGVGGGFVRTGPFANMTVNLGPVGGLADTAPGPQGGLGYNPRGLKRDLGGAMNTRYANYTTVLRLLTQPDVDAFRTVSEGVPYTVEIGPHGGIHYTIGGDPGGDLFTSPGDPAFWVHHAQMDRVWATWQALGLLPPADGGDPDPARRYTDLGKGDYAHRTWQNSPPSPFAELSDVIDMGYAAPSTTIGAVMSTTEGELCYFYL | 33.7(14.0) mM | 1619.1(549.2) min^-1 | Km (purified protein [1]): 4.6(0.6) mM; kcat (purified protein [1]): 39.3(2.2) min^-1; Km (purified protein [2]): 2.4(0.7) mM; kcat (purified protein [2]): 4.3(0.5) min^-1; Km (purified protein [4]): 59.1(6.0) mM; kcat (purified protein [4]): 67.5(3.9) min^-1; Km (purified protein [5]): 32.5(4.3) mM; kcat (purified protein [5]): 8.6(0.6) min^-1
2 | TtPPO (Thermothelomyces thermophilus ATCC 42464; L326A) (protein) RCSSDAPPPAPVGDDLTEPKELTDLFEKAKKAVIDRLHEDEKALRARGEAPRCTADKLIFRREYGSLSKDERLAYVNAVKCLQSKPPRTPASVAPGARSRFDDFVVVHIQQTLDIHYSGIFQAWHRWFVYQYEKALRDECGYTGYQPYWDWPKYASAPQDSPLFNGDPYSLGGNGEYVPHDGPVIVPPEGVSGGNISLPAGVGGGFVRTGPFANMTVNLGPVGGLADTAPGPQGGLGYNPRGLKRDLGGAMNTRYANYTTVLRLLTQPDVDAFRTVSEGVPYTVEIGPHGGIHYTIGGDPGGDAFTSPGDPAFWVHHAQMDRVWATWQALGLLPPADGGDPDPARRYTDLGKGDYAHRTWQNSPPSPFAELSDVIDMGYAAPSTTIGAVMSTTEGELCYFYL | 2.8(0.5) mM | 415.0(35.1) min^-1 | –
3 | TtPPO (Thermothelomyces thermophilus ATCC 42464; G312N) (protein) RCSSDAPPPAPVGDDLTEPKELTDLFEKAKKAVIDRLHEDEKALRARGEAPRCTADKLIFRREYGSLSKDERLAYVNAVKCLQSKPPRTPASVAPGARSRFDDFVVVHIQQTLDIHYSGIFQAWHRWFVYQYEKALRDECGYTGYQPYWDWPKYASAPQDSPLFNGDPYSLGGNGEYVPHDGPVIVPPEGVSGGNISLPAGVGGGFVRTGPFANMTVNLGPVGGLADTAPGPQGGLGYNPRGLKRDLGGAMNTRYANYTTVLRLLTQPDVDAFRTVSEGVPYTVEIGPHNGIHYTIGGDPGGDLFTSPGDPAFWVHHAQMDRVWATWQALGLLPPADGGDPDPARRYTDLGKGDYAHRTWQNSPPSPFAELSDVIDMGYAAPSTTIGAVMSTTEGELCYFYL | 4.3(1.0) mM | 2.9(0.3) min^-1 | –
4 | TtPPO (Thermothelomyces thermophilus ATCC 42464; G312N/L326A) (protein) RCSSDAPPPAPVGDDLTEPKELTDLFEKAKKAVIDRLHEDEKALRARGEAPRCTADKLIFRREYGSLSKDERLAYVNAVKCLQSKPPRTPASVAPGARSRFDDFVVVHIQQTLDIHYSGIFQAWHRWFVYQYEKALRDECGYTGYQPYWDWPKYASAPQDSPLFNGDPYSLGGNGEYVPHDGPVIVPPEGVSGGNISLPAGVGGGFVRTGPFANMTVNLGPVGGLADTAPGPQGGLGYNPRGLKRDLGGAMNTRYANYTTVLRLLTQPDVDAFRTVSEGVPYTVEIGPHNGIHYTIGGDPGGDAFTSPGDPAFWVHHAQMDRVWATWQALGLLPPADGGDPDPARRYTDLGKGDYAHRTWQNSPPSPFAELSDVIDMGYAAPSTTIGAVMSTTEGELCYFYL | 4.3(0.3) mM | 337.9(11.2) min^-1 | –
5 | TtPPO (Thermothelomyces thermophilus ATCC 42464; G312N/Y316V) (protein) RCSSDAPPPAPVGDDLTEPKELTDLFEKAKKAVIDRLHEDEKALRARGEAPRCTADKLIFRREYGSLSKDERLAYVNAVKCLQSKPPRTPASVAPGARSRFDDFVVVHIQQTLDIHYSGIFQAWHRWFVYQYEKALRDECGYTGYQPYWDWPKYASAPQDSPLFNGDPYSLGGNGEYVPHDGPVIVPPEGVSGGNISLPAGVGGGFVRTGPFANMTVNLGPVGGLADTAPGPQGGLGYNPRGLKRDLGGAMNTRYANYTTVLRLLTQPDVDAFRTVSEGVPYTVEIGPHNGIHVTIGGDPGGDLFTSPGDPAFWVHHAQMDRVWATWQALGLLPPADGGDPDPARRYTDLGKGDYAHRTWQNSPPSPFAELSDVIDMGYAAPSTTIGAVMSTTEGELCYFYL | 10.3(0.8) mM | 33.3(1.7) min^-1 | –
6 | TtPPO (Thermothelomyces thermophilus ATCC 42464; Y316V) (protein) RCSSDAPPPAPVGDDLTEPKELTDLFEKAKKAVIDRLHEDEKALRARGEAPRCTADKLIFRREYGSLSKDERLAYVNAVKCLQSKPPRTPASVAPGARSRFDDFVVVHIQQTLDIHYSGIFQAWHRWFVYQYEKALRDECGYTGYQPYWDWPKYASAPQDSPLFNGDPYSLGGNGEYVPHDGPVIVPPEGVSGGNISLPAGVGGGFVRTGPFANMTVNLGPVGGLADTAPGPQGGLGYNPRGLKRDLGGAMNTRYANYTTVLRLLTQPDVDAFRTVSEGVPYTVEIGPHGGIHVTIGGDPGGDLFTSPGDPAFWVHHAQMDRVWATWQALGLLPPADGGDPDPARRYTDLGKGDYAHRTWQNSPPSPFAELSDVIDMGYAAPSTTIGAVMSTTEGELCYFYL | 9.7(2.4) mM | 547.3(84.6) min^-1 | –
